This is an account of results in article PMC8470133, “Aptasensor for the Detection of Mycobacterium tuberculosis in Sputum Utilising CFP10-ESAT6 Protein as a Selective Biomarker”.

For the data set, the target named is T1, CFP10-ESAT6 antigen (Mycobacterium tuberculosis, UniProt P9WNK5;P9WNK7 2-100;2-95).
T1 chain 1: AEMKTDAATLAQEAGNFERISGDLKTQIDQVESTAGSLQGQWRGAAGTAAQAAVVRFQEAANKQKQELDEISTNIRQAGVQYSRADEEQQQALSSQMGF
T1 chain 2: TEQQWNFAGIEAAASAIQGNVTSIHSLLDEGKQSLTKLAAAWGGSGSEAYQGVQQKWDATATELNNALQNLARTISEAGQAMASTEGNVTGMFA
The experiment in a line: circular dichroism; Sensor: antigen incubated 1 h at 37 °C on aptamer electrode blocked with 0.25% BSA, PBS wash; DPV in 0.1 M PBS pH 7.4; CD buffer not given. The conditions noted are these: protein: commercial; copies: 1;1; folded.

B1: CapApt (CFP10-ESAT6 aptamer) (ssDNA)
DNA: GCCTGTTGTGAGCCTCCTAACCCCATCTTATACGTATATGGACTCATCTCGACCCCCGATAGGCTTGGTACATGCTTATTCTTGTCTCCC
modifications: 5'-NH2
B1: the binding result is recorded as “binds”.
